# Key:
# Test in all cases: IEDB peptide-MHC binding, purified MHC/competitive/fluorescence; filed as Kd, often an IC50 or EC50 that approximates it; ≥ and ≤ were set here for values at or beyond the usual limits of such assays
# Conditions in all cases: source organism: Entamoeba histolytica HM-1:IMSS
# HLA-B*46:01 = target: HLA-B*46:01
# HLA-A*01:01 = target: HLA-A*01:01
# HLA-B*27:05 = target: HLA-B*27:05
# HLA-A*30:01 = target: HLA-A*30:01
# HLA-A*68:02 = target: HLA-A*68:02
# HLA-B*18:01 = target: HLA-B*18:01
# HLA-A*29:02 = target: HLA-A*29:02
# HLA-A*30:02 = target: HLA-A*30:02
sequence,measurement,setting,value
EVIRATYPS,Kd,HLA-B*46:01,≥ 20 µM
same,Kd,HLA-A*01:01,≥ 5 µM
same,Kd,HLA-B*27:05,≥ 5 µM
same,Kd,HLA-A*30:01,≥ 5 µM
same,Kd,HLA-A*68:02,0.0002 µM
same,Kd,HLA-B*18:01,≥ 20 µM
same,Kd,HLA-A*29:02,≥ 20 µM
same,Kd,HLA-A*30:02,≥ 5 µM

# Source: the Immune Epitope Database (IEDB)
